Series [1] concerns the molecule itself. The series is described as follows: AUC.
In series [2] the target is T1, PfTrx-Px2Mut2 (Phe139Ala140 replaced by ValSer) (Plasmodium falciparum) (UniProt Q8I5Q6).
T1 sequence: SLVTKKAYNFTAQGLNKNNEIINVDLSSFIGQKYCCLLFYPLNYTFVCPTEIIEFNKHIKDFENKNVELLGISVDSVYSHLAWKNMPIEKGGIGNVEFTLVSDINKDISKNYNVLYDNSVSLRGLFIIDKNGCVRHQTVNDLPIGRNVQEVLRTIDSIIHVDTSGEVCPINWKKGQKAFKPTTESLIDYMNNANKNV

Series [3] deals with T2, PfTrx-Px2Mut1 (Asn62Tyr63 replaced by AspPhe) (Plasmodium falciparum) (UniProt Q8I5Q6).
T2 sequence: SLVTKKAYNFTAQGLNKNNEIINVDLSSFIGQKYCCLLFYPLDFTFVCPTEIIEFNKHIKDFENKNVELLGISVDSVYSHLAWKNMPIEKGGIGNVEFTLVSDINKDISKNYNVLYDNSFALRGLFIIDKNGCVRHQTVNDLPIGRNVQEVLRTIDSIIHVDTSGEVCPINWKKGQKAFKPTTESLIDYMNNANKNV

B1: Plasmodium falciparum mitochondrial peroxiredoxin (PfTrx-Px2), recombinant protein from construct pftrx-px2-2 lacking the first 19 amino acids (enzyme, UniProt Q8I5Q6 20-216, looked up)
chain: SLVTKKAYNFTAQGLNKNNEIINVDLSSFIGQKYCCLLFYPLNYTFVCPTEIIEFNKHIKDFENKNVELLGISVDSVYSHLAWKNMPIEKGGIGNVEFTLVSDINKDISKNYNVLYDNSFALRGLFIIDKNGCVRHQTVNDLPIGRNVQEVLRTIDSIIHVDTSGEVCPINWKKGQKAFKPTTESLIDYMNNANKNV
On to B1, for which, in series [1], the “stoichiometry N” value stood at 10.

B2: Plasmodium falciparum thioredoxin 2 (PfTrx2), construct PfTrx2-S3 lacking the first 47 amino acids (domain or fragment)
chain: MFKKVPRLQQNGSNIINGVNMKNTVIVLYFFAKWCQACTMQSTEMDKLQKYYGKRIYLLKVDLDKNESLARKFSVKSLPTIILLKNKTMLARKDHFVSSNDLIALIKKHL
With B2, the KM^app of PfTrx-Px2Mut2 for Trx2; coupled peroxidase assay in series [2] was 12.1 µM. Besides, the KM^app of PfTrx-Px2Mut1 for Trx2; coupled peroxidase assay in series [3] was 7.7 µM.

B3: Plasmodium falciparum thioredoxin 1 (PfTrx1), cytosolic thioredoxin (natural protein)
chain: MVKIVTSQAEFDSIISQNELVIVDFFAEWCGPCKRIAPFYEECSKTYTKMVFIKVDVDEVSEVTEKENITSMPTFKVYKNGSSVDTLLGANDSALKQLIEKYAA
For the molecule B3, the KM^app of PfTrx-Px2Mut2 for Trx1; coupled peroxidase assay in series [2] worked out at 78.8 µM. Moreover, in series [3], the KM^app of PfTrx-Px2Mut1 for Trx1; coupled peroxidase assay amounted to 86.2 µM.

The values are drawn from publication PMC1618809 (Molecular Microbiology, 2006).
